This note sets out measurements from patent publication US20240116985A1 (published 2024).

Test [1] has as its target T1, B-cat-Halo (UniProt P35222 1-781).
T1 sequence (looked up): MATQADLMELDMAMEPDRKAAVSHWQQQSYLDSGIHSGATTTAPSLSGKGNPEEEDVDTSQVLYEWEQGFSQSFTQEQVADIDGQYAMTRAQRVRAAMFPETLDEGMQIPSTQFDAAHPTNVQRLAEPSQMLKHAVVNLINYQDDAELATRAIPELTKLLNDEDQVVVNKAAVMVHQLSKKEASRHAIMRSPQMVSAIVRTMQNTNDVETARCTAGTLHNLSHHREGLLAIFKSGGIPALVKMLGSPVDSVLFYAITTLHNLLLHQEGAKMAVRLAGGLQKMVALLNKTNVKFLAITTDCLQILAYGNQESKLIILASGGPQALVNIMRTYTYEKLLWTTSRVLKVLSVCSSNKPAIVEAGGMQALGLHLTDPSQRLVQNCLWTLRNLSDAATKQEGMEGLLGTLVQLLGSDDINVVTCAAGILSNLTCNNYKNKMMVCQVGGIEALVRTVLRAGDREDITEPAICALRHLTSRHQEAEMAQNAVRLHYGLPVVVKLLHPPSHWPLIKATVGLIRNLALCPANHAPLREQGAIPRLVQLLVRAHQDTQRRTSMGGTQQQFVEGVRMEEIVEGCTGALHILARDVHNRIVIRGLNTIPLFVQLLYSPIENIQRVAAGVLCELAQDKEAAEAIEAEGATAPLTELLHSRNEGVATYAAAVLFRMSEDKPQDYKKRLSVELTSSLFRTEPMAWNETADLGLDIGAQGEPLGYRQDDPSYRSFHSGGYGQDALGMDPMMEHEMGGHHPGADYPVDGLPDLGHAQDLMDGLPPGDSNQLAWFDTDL
Put plainly: cell-based or functional assay.

The target in test [2] is T2, full-length beta-Catenin (Uniprot ID P35222) (Homo sapiens (Human), UniProt P35222 1-781).
T2 construct: also called bCat; B-Catenin
T2 sequence: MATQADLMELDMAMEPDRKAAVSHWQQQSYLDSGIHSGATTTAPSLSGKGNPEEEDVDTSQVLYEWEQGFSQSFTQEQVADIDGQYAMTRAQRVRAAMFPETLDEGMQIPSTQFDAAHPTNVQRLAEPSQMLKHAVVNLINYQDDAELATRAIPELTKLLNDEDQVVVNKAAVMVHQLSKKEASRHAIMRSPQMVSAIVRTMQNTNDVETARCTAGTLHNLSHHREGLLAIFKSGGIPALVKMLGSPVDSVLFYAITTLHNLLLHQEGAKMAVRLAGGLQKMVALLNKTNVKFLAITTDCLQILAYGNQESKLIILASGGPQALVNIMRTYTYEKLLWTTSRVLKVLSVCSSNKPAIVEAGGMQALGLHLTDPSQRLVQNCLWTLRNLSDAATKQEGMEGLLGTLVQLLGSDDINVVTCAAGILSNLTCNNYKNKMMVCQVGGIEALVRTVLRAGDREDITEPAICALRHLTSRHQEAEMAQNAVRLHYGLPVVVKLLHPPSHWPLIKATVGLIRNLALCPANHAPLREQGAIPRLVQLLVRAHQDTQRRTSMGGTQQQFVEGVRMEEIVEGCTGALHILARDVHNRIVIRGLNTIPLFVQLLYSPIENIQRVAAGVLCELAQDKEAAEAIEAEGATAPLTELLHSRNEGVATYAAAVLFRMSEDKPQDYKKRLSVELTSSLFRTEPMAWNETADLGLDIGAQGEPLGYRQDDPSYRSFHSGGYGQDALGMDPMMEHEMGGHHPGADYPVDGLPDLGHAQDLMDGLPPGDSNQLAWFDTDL
Put plainly: fluorescence polarization competition; displacement of 5FAM-TCF4(10-53) from full-length beta-catenin. The essentials:
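Readings followed a light-protected 60-minute incubation at 20° C. Each read was done in duplicate. Curves were fit with a 1:1 binding model including hill slope, and stated concentrations are final.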
On the technique in general: Fluorescence polarisation rises when a labelled molecule tumbles more slowly, as on binding a larger partner.

For test [3], the target named is T3, B-cat-Halo (beta-catenin HaloTag fusion expressed in HEK293 cells) (UniProt P35222 1-781).
T3 sequence (looked up): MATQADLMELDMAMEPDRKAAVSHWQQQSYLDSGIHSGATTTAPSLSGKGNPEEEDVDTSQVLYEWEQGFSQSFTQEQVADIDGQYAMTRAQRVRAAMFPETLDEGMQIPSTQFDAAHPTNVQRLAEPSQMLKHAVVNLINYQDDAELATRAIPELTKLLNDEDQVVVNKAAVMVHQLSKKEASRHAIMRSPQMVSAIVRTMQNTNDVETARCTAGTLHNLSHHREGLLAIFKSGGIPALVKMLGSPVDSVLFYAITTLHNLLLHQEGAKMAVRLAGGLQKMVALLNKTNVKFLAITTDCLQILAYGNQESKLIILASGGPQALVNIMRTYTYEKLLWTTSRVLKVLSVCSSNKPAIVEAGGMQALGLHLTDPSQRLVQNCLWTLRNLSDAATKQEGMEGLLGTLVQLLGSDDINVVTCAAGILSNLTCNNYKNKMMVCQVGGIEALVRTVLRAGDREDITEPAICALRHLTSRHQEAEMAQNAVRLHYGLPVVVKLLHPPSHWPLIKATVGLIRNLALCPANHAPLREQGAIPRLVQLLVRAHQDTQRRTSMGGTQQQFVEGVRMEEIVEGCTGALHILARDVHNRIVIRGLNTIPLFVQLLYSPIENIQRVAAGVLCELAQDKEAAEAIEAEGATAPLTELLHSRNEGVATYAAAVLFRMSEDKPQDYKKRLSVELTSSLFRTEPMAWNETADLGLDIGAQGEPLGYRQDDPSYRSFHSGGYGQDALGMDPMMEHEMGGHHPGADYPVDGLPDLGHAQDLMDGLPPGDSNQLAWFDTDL
Put plainly: cell-based or functional assay.

In general, EC50 refers to the concentration at which the effect is half-maximal. The low end stands for higher potency in that assay, the high end for lower potency in that assay.

Starred links: 1 amine or outer side, 2 acyl side, 3 side chain; linkers in the order of their positions; H or OH if unused. Positions of bridges follow the written chain, without caps; N, C: chain ends. Non-standard residues stand in square brackets, D forms with d. Primed or numbered codes have the meaning given here. B5(16) = 2-amino-2-(pent-4-en-1-yl)hept-6-enoic acid = 2,2-bis(4-pentenyl)glycine (stitching residue), C=CCCCC(CCCC=C)(N[*:1])C(=O)[*:2]; Bta = N[C@@H](Cc1csc2ccccc12)C(=O)O; αAllylPro = C=CC[C@@]1(C(=O)O)CCCN1; Cha = N[C@@H](CC1CCCCC1)C(=O)O; S8 = C=CCCCCCC[C@](C)(N)C(=O)O

B1: I-567 (peptide)
peptide: XDVXDDAAFNXFXQ
modifications: not fully specified; Ac-PL3-Asp-Val-B5-Asp-Asp-Ala-Ala-Phe-Asn-S8-Phe-BztA-Gln-NH2; N-terminal acetyl, C-terminal amide; non-natural: PL3(1), B5(4), S8(11), BztA(13); staples PL3(1)-B5(4) and B5(4)-S8(11)
As for B1, the “NanoBRET % inh @ 10 uM” value in test [1] turned out to be 8.9%. In addition, the EC50 in test [2] came out at 0.037 µM.

With Ac-[αAllylPro]D[Cha][B5(16)]DEAAFN[S8]F[Bta]Q-NH2 (staple 1-4, 4-11; also: later-eluting staple isomer composition) [I-620], the “NanoBRET Abs IC50” value in test [3] worked out at 12 µM.
